Source: a protein production outcome set (Wang et al. 2014)

Assay: label from the status in PepcDB records
With “SPEPYPPLVIETPAMEAAVTALIDRVFGPGRFAKSSERLREGNTLLADCSFVSLRDGAPVGCVRMWPVTIGGEPVAFLGPLAVDPDERSAGLGQALVEAACEAARAAGWRAVLLVGDGPYFGRVGFTNAHTAGVIMPGPVDQRRVLLLPLRDGG” the protein production was “failed”. In the case of “SQPLLDRSIPDFTAFTTVDDWLSAIKMVQYRDSFLTAGFTSLQLVTQMTSEDLLRIGITLAGHQKKILNSIHSMRVQISQSPTAMA”, the protein production was “not failed”. With “SRRRRSGTEPEKIEPGEGASRSRRDMLKDGGQQGLGTGARDPDKATRFRMEELRLTSTTFALTGDSAHNQAMVHWSGHNSSVILILTKLYDYNLGSITESSLWRSTDYGTTYEKLNDKVGLKTILSYLYVCPTNKRKIMLLTDPEIESSLLISSDEGATYQKYRLNFYIQSLLFHPKQEDWILAYSQDQKLYSSAEFGRRWQLIQESVVPNRFYWSVMGSSKEPDLVHLEARTVDGHSIYLTCRMQNCTEANRNKPFPGYIDPDSLIVQDDYVFVQLTSGGRPHYYVSYRRSPFAQMKLPKYALPKDMHVISTDENQVFAAVQEWNQNDTYNLYISDTRGVYFTLALENVQSSRGPEGNVMIDLYEVAGIKGMFLANKKIDNQVKTFITYNKGRDWRLLQAPDADLRGDPVHCLLPYCSLHLHLKVSENPYTSGIIASRDTAPSIIVASGNIGSELSDSDISMFVSSDAGNTWRQIFEEEHSILYLDQGGVLVAMKHTSLPIRHLWLSFDEGRSWSKYSFTSIPLFVDGVLGEPGEETLIMTVFGHFSHRSEWQLVKVDYKSIFDRRCAEEDYRPWQLHSQGEACIMGAKRIYKKRKSERKCMQGKYAGAMESEPCVCTEADFDCDYGYERHSNGQCLPAFWFNPSSLSKDCSLGQSYLNSTGYRKVVSNNCTDGVREQYTAKPQKCP” the protein production was “not failed”. For “SRVLSRMSGTIRHFQAITLALSRERDLERMLDGVLSHLVEAAGGDAGGVYLYDAEQALLRLAASCRGEHYPSELAVDESARQHLAATVTQALSLHERSLAVVLNDRSQALLGILVLQMGEEQAQERVGEAFRRFVEELSGVAAVAIETRQLVEAQQRLLDA”, the protein production was “failed”. In the case of “SSEDLAKQLASYKAQLQQVEAALSGNGENEDLLKLKKDLQEVIELTKDLLSTQPSETLASSDSFASTQPTHSWKVGDKCMAVWSEDGQCYEAEIEEIDEENGTAAITFAGYGNAEVTPLLNLKPVEEGRKAKEDSGNKPMSKKEMIAQQREYKKKKALKKAQRIKELEQEREDQKVKWQQFNNRAYSKNKKGQVKRSIFASPESVTGKVGVGTCGIADKPMTQYQDTSKYNVRHLMPQ”, the protein production was “failed”. In the case of “SSEQIRRAPKVLLHDHLDGGLRPGTIVELARDAGYSGLPETDPDKLGIWFREAADSGSLERYLETFAHTCAVMQTRAALVRVAAECAEDLAADGVVYAEVRYAPEQHLEAGLSLEEVVEAVNEGFRAGERRAKEDGNRIRVGALLTAMRHAARALEIAELANRYRDAGVVGFDIAGAEAGFPPTRHLDAFEYLKRENNHFTIHAGEAFGLPSIWQALQWCGADRLGHGVRIIDDIQVREDGSVKLGRLASYVRDKRIPLELCPSSNLQTGAASSYADHPIGLLRRLHFRATVNTDNRLMSGTSMSREFEHLVDAFGYTLDDMAWFSVNAMKSAFIPFDERLAMINDV”, the protein production was “failed”. In the case of “SSLRPSPRLLCTATKQKNSGQNLEEDMGQSEQKADPPATEKTLLEEKVKLEEQLKETVEKYKRALADTENLRQRSQKLVEEAKLYGIQAFCKDLLEVADVLEKATQCVPKEEIKDDNPHLKNLYEGLVMTEVQIQKVFTKHGLLKLNPVGAKFDPYEHEALFHTPVEGKEPGTVALVSKVGYKLHGRTLRPALVGVVKEA”, the protein production was “failed”. With “SSPFPIPNTQYPISNPQFNRWLVPMAGGPNARIAIKLLPALVTLSDDPQIRLTRVFKPWEFRPDMTVLEQAIRQLMRRRQLSSTVIAAPVQADSVVEGVIKLVETEGYDVVVLGASREGLLQQAIQGNIPEAIASGVDSTVILVR” the protein production was “failed”. For “SSSDIAYIYVNNKKSYLKDKKVRQALTYGLDRKKYVDTALQGYGSVANVPIAPVSWAYTEEGINKYPHDVEKAKKLLDEAGWKVGSDGVREKDGQKLKLTYYASNTGKTNDIFIPIAKESYKEIGVELNPELMDFNTMLSKVGKGDYDLAAVSTPGISDPSEVVSDYLSTNPKSDTGYSNPKVDDLIVKGIGTTDIEKRKAIYKELYKELSDDPPVILLNYRK”, the protein production was “failed”. With “STGKKPKHHVLSHDIIPASKPIAEKLQIQPESPVVELKRILYNDDQPLTFEVTHYPLDLFPGIDTFIADGVSMHDILKQQYKVVPTHNTKLLNVVYAQQEESKYLDCDIGDALFEIDKTAFTSNDQPIYCSLFLMHTNRVTFTINSPYT” the protein production was “not failed”. In the case of “STISILATSDIHGNVLNYDYATGKAPTNTQGLAKVSSYVNSVRASKPNVMLIDDGDTIQGTPLSYYYDKIDTTSEYPLMKIMGAMKYDTWTLGNHEFNYGLPTLNRVISDARKENINVLSANTYNSDNTNFVNPYYIKTFNINGKTVNVGILGLTTKCIPDWEDPSHYAGLHFNDLVDEAKLWVPRMKAAGANVVIVAAHSGEEGAADTIPENQIKAIATNVSGIDAIVAGHAHVTVNDTSLKNPNGKTVPVVEPNKWGTFVSQIDITLDNSGNASTINTQNVKMTDSIPEDPNIVNIIQPYQNKTLDYIST”, the protein production was “failed”. With “STSPEIASLSWGQMKVKGSNTTYKDCKVWPGGSRTWDWRETGTEHSPGVQPADVKEVVEKGVQTLVIGRGMSEALKVPSSTVEYLKKHGIDVRVLQTEQAVKEYNALVAQGVRVGGVFHSTC” the protein production was “not failed”. For “SVDLAHIRQVRAEADCLFNNDEVEAAIGRVAEAINRDLGETNPVVFCVMNGGLIFSGKLLPLLDFPLELSYLHATRYRNETSGGELFWKAKPEISFIDRDVLIIDDILDEGHTLSAIIDFCKHAGARAVHTAVLVDKEHERKARPDLKASFTGLYCADRYVFGYGMDYKGYWRNA”, the protein production was “failed”. For “SVNAATVDLRIMETTDLHSNMMDFDYYKDAATEKFGLVRTASLIEQARAEVKNSVLVDNGDVIQGSPLGDYMAAKGLKEGDVHPVYKAMNTLNYAVGNLGNHEFNYGLDFLHKALAGAKFPYVNANIIDAKTGKPMFTPYLIQDTRVVDSDGQIHTLRIGYIGFVPPQIMTWDKANLNGKVTVNDITETARKYIPEMRAKGADVVVVVAHSGLSADPYQAMAENSVYYLSQVPGVDAIMFGHAHAVFPGKDFANIKGADIAKGTLNGVPAVMPGMWGDHLGVVDLVLNNDSGKWQVTQSKAEARPIYDAVAKKSLAAEDGKLVSVLKADHDATREFVSK”, the protein production was “not failed”. For “SWLYGKSDARWTITEYADLECPYCRTYTPQLMQWIDGQTDVNLVWHHFPLQMHGAATLKEARLVQCAGKLGGGKAFWNAIDQVLKHTRGDGQGLVTSIALSGIDAVVLDRCATLDADVALHVDQQLQLAQQAGVTATPTIKITDTQTRHSVRLEGPVDEVSILSAMDRLAFESK”, the protein production was “failed”. In the case of “SYETSQHNLDAVEAVLSRLQKQTGEMAAYMVPVGYRALCVSQRESMQALRCSFVQGQSQPLLRGASSKVMLAYMPAARCEKILRYFGEDPTLDKWQSEFEKIRRHGYAVSTSEIDPGVSGISAPVMKGSKLIGAISVMAPAHRVESNKQRIILHVLQAARAL”, the protein production was “not failed”. For “SYTEVRELVNFVCRYLFGHIPRRPVGIFGAELGNYLVSHFSSTWDVHHPKNGEMKRMINTTTSLCFASSAEEAGVPPSDVLRLLPTNMIIFANPGHVFVRLSENGIETPIWIGDVNCDENYQSVPEYVVRTAAIRAEPCSNLGAAGKSVLVGKKPLLTNDKAALEMVNTMYSPLAREKCDDINANLSHLREMYPFRFVYKPSSAQTFSGVEFSQTRFGSSKSRPDLQTMDVIKYLSSQQVSSSSSPSFTYSSINDQMRYSPRF”, the protein production was “not failed”. With “SYTFDTTDHKSPCCNFQWYIFRKQGESRIITCELFGVIVSLENRWDWLEFMIDDSLQLTAFRCPKRDKLGMETLLQLGDVAQVTGNWKLSNGAFLNATKIAIHNNPDVECKYWLQQIQKYKSKVCELEIPSDWIRRQQRAHNLKTDAVLSFSAQVSTAAATCWKLWKKHFNQGGKISLQRLWEVIQRENCPKMQELSSCRRNQIVQLLIHLGYLIPLSKEPETYVLLIDDILDKQVMQIFNQNIASKTLSLREVAYRLEEYFHVEEISLERVEESILRLAYKEKVEQV” the protein production was “not failed”. For “TAANAVASRVGAPLGHDYAVLSLSDRLKPWDVVAQRISAVASADMAFAVYNPASKSRTWQVAAMRDLVLEHRSPDTPVIIGRDVAGAQESVRVVRLADLDPAEIDMRCLLIVGSSMTTVVENEHGTRVFTPRRYPG”, the protein production was “failed”.
